Like-named read-outs stand apart in the source and are kept apart here.
What was measured:
[1] = target: IL2Rα/β/γ receptor (high affinity IL2 receptor) on YT/STAT5-Luc cells expressing endogenous or over-expressed human IL2Rα (human) (UniProt P01589); experiment: cell-based or functional assay
[2] = target: IL2Rβ/γ receptor (low/medium affinity IL2 receptor) on YT/STAT5-Luc cells with IL2Rα knocked out (human) (UniProt P14784); experiment: cell-based or functional assay
[3] = target: human PD1 (amino acids M1-L288 of NP_005009.2 with a 2Q=>E mutation) stably expressed on engineered reporter cells (human) (UniProt Q15116); experiment: cell-based or functional assay
[4] = target: IL2Rα/β/γ receptor (high affinity IL2 receptor) on YT/STAT5-Luc cells expressing endogenous or over-expressed human IL2Rα (human) (UniProt P01589); experiment: cell-based or functional assay; remark: listed apart in the source
[5] = target: IL2Rβ/γ receptor (low/medium affinity IL2 receptor) on YT/STAT5-Luc cells with IL2Rα knocked out (human) (UniProt P14784); experiment: cell-based or functional assay; remark: listed apart in the source
[6] = target: IL2Rβ/γ receptor (low/medium affinity IL2 receptor) on YT/STAT5-Luc cells with IL2Rα knocked out (human) (UniProt P14784); experiment: flow cytometry, YT/STAT5-Luc CD25 KO/PD1 OE cells, AF647 anti-human IgG secondary
[7] = target: IL2Rα/β/γ receptor (high affinity IL2 receptor) on YT/STAT5-Luc cells expressing endogenous or over-expressed human IL2Rα (human) (UniProt P01589); experiment: flow cytometry, YT/STAT5-Luc CD25 OE/PD1 OE cells, AF647 anti-human IgG secondary
[8] = target: IL2Rα/β/γ receptor (high affinity IL2 receptor) on YT/STAT5-Luc cells expressing endogenous or over-expressed human IL2Rα (human) (UniProt P01589); experiment: flow cytometry on YT/STAT5-Luc/IL2Ra OE (CD25 OE/PD1 OE) cells, AF647 anti-human IgG secondary, gMFI on a log axis

IL2-Fc (Fc fusion)
EC50, STAT5-Luc IL2 reporter assay, YT/Stat5-Luc [1]: 0.402 nM
EC50, STAT5-Luc IL2 reporter assay, YT/Stat5-Luc/hIL2Rα [1]: 0.0241 nM
EC50, STAT5-Luc IL2 reporter assay, YT/Stat5-Luc/hIL2Rα/hPD1 [1]: 0.0232 nM
EC50, STAT5-Luc IL2 reporter assay, YT/Stat5-Luc/hPD1 [1]: 0.392 nM
Fold induction, STAT5-Luc IL2 reporter assay, YT/Stat5-Luc [1]: 4.96 fold
Fold induction, STAT5-Luc IL2 reporter assay, YT/Stat5-Luc/hIL2Rα [1]: 5.49 fold
Fold induction, STAT5-Luc IL2 reporter assay, YT/Stat5-Luc/hIL2Rα/hPD1 [1]: 3.06 fold
Fold induction, STAT5-Luc IL2 reporter assay, YT/Stat5-Luc/hPD1 [1]: 7.97 fold
EC50, STAT5-Luc IL2 reporter assay, YT/Stat5-Luc/IL2Rα KO [2]: 1.33 nM
EC50, STAT5-Luc IL2 reporter assay, YT/Stat5-Luc/IL2Rα KO/hPD1 [2]: 0.442 nM
Fold induction, STAT5-Luc IL2 reporter assay, YT/Stat5-Luc/IL2Rα KO [2]: 5.4 fold
Fold induction, STAT5-Luc IL2 reporter assay, YT/Stat5-Luc/IL2Rα KO/hPD1 [2]: 3.87 fold

Isotype control 1 (antibody)
Fold induction, AP1-Luc PD1 antagonistic assay [3]: 1.13 fold

Isotype control 2 (antibody)
Fold induction, AP1-Luc PD1 antagonistic assay [3]: 1.2 fold

Isotype control (IL2 reporter assay, Tables 8 and 9) (antibody)
Fold induction, STAT5-Luc IL2 reporter assay, YT/Stat5-Luc [1]: 1.07 fold
Fold induction, STAT5-Luc IL2 reporter assay, YT/Stat5-Luc/hIL2Rα [1]: 1.07 fold
Fold induction, STAT5-Luc IL2 reporter assay, YT/Stat5-Luc/hIL2Rα/hPD1 [1]: 1 fold
Fold induction, STAT5-Luc IL2 reporter assay, YT/Stat5-Luc/hPD1 [1]: 1.08 fold
Fold induction, STAT5-Luc IL2 reporter assay, YT/Stat5-Luc/IL2Rα KO [2]: 1.12 fold
Fold induction, STAT5-Luc IL2 reporter assay, YT/Stat5-Luc/IL2Rα KO/hPD1 [2]: 1.06 fold

Isotype-IL2-IL2Ra
EC50 (M), STAT5-Luc IL2 reporter assay, CD25 OE/PD1 OE [1]: 1.41e-09 M
Max Fold induction, STAT5-Luc IL2 reporter assay, CD25 OE/PD1 OE [1]: 7.78 fold
Max Fold induction, STAT5-Luc IL2 reporter assay, CD25 KO/PD1 OE [2]: 1.25 fold

REGN9903 (isotype-IL2Rα-IL2 control)
EC50 (M), STAT5-Luc IL2 reporter assay, CD25 OE/PD1 OE [1]: 3.31e-10 M
Max Fold induction, STAT5-Luc IL2 reporter assay, CD25 OE/PD1 OE [1]: 7 fold
Max Fold induction, STAT5-Luc IL2 reporter assay, CD25 KO/PD1 OE [2]: 4.37 fold

REGN9904 (non-targeted IL2Rα-IL2)
EC50, PD1 competition STAT5-Luc assay, YT/STAT5-Luc/hIL2Rα/hPD1, no antibody ('-') [1]: 0.703 nM
EC50, PD1 competition STAT5-Luc assay, YT/STAT5-Luc/hIL2Rα/hPD1, with Comp 1 [1]: 0.918 nM
EC50, PD1 competition STAT5-Luc assay, YT/STAT5-Luc/hIL2Rα/hPD1, with Comp 2 [1]: 0.938 nM
EC50, PD1 competition STAT5-Luc assay, YT/STAT5-Luc/hIL2Rα/hPD1, with REGN2810 [1]: 0.651 nM
EC50, PD1 competition STAT5-Luc assay, YT/STAT5-Luc/hIL2Rα/hPD1, with isotype control [1]: 0.791 nM
EC50, STAT5-Luc IL2 reporter assay, YT/Stat5-Luc/hIL2Rα [1]: 1.63 nM
EC50, STAT5-Luc IL2 reporter assay, YT/Stat5-Luc/hIL2Rα/hPD1 [1]: 0.971 nM
Fold induction, STAT5-Luc IL2 reporter assay, YT/Stat5-Luc [1]: 3.21 fold
Fold induction, STAT5-Luc IL2 reporter assay, YT/Stat5-Luc/hIL2Rα [1]: 4.87 fold
Fold induction, STAT5-Luc IL2 reporter assay, YT/Stat5-Luc/hIL2Rα/hPD1 [1]: 2.77 fold
Fold induction, STAT5-Luc IL2 reporter assay, YT/Stat5-Luc/hPD1 [1]: 4.52 fold
Fold induction, STAT5-Luc IL2 reporter assay, YT/Stat5-Luc/IL2Rα KO [2]: 2.62 fold
Fold induction, STAT5-Luc IL2 reporter assay, YT/Stat5-Luc/IL2Rα KO/hPD1 [2]: 2.59 fold
Fold induction, AP1-Luc PD1 antagonistic assay [3]: 1.08 fold
EC50 (M), STAT5-Luc IL2 reporter assay, CD25 OE/PD1 OE [4]: 7.69e-10 M
Max Fold induction, STAT5-Luc IL2 reporter assay, CD25 OE/PD1 OE [4]: 4.57 fold
Max Fold induction, STAT5-Luc IL2 reporter assay, CD25 KO/PD1 OE [5]: 3.24 fold
Fold induction (highest gMFI relative to gMFI without antibody) [6]: 1.7 fold
Max gMFI [6]: 3990 gMFI
Fold induction (highest gMFI relative to gMFI without antibody) [7]: 33.1 fold
Max gMFI [7]: 77600 gMFI
EC50 (read off the curve) [8]: 10 nM

REGN10597
EC50 (M), STAT5-Luc IL2 reporter assay, CD25 OE/PD1 OE [1]: 3.3e-11 M
EC50, STAT5-Luc IL2 reporter assay, YT/Stat5-Luc/hIL2Rα [1]: 0.848 nM
EC50, STAT5-Luc IL2 reporter assay, YT/Stat5-Luc/hIL2Rα/hPD1 [1]: 0.0353 nM
EC50, STAT5-Luc IL2 reporter assay, YT/Stat5-Luc/hPD1 [1]: 0.175 nM
Fold induction, STAT5-Luc IL2 reporter assay, YT/Stat5-Luc [1]: 3.29 fold
Fold induction, STAT5-Luc IL2 reporter assay, YT/Stat5-Luc/hIL2Rα [1]: 5.19 fold
Fold induction, STAT5-Luc IL2 reporter assay, YT/Stat5-Luc/hIL2Rα/hPD1 [1]: 2.88 fold
Fold induction, STAT5-Luc IL2 reporter assay, YT/Stat5-Luc/hPD1 [1]: 6.39 fold
Max Fold induction, STAT5-Luc IL2 reporter assay, CD25 OE/PD1 OE [1]: 7.36 fold
EC50 (M), STAT5-Luc IL2 reporter assay, CD25 KO/PD1 OE [2]: 5.78e-11 M
EC50, STAT5-Luc IL2 reporter assay, YT/Stat5-Luc/IL2Rα KO/hPD1 [2]: 0.191 nM
Fold induction, STAT5-Luc IL2 reporter assay, YT/Stat5-Luc/IL2Rα KO [2]: 2.85 fold
Fold induction, STAT5-Luc IL2 reporter assay, YT/Stat5-Luc/IL2Rα KO/hPD1 [2]: 3.54 fold
Max Fold induction, STAT5-Luc IL2 reporter assay, CD25 KO/PD1 OE [2]: 5.72 fold
EC50 (M), AP1-Luc PD1 antagonistic assay [3]: 1.26e-08 M
EC50, PD1 competition STAT5-Luc assay, YT/STAT5-Luc/IL2Rα KO/hPD1, no antibody ('-') [3]: 0.129 nM
EC50, PD1 competition STAT5-Luc assay, YT/STAT5-Luc/IL2Rα KO/hPD1, with Comp 1 [3]: 0.306 nM
EC50, PD1 competition STAT5-Luc assay, YT/STAT5-Luc/IL2Rα KO/hPD1, with Comp 2 [3]: 0.281 nM
EC50, PD1 competition STAT5-Luc assay, YT/STAT5-Luc/IL2Rα KO/hPD1, with REGN2810 [3]: 0.222 nM
EC50, PD1 competition STAT5-Luc assay, YT/STAT5-Luc/IL2Rα KO/hPD1, with isotype control [3]: 0.132 nM
EC50, PD1 competition STAT5-Luc assay, YT/STAT5-Luc/hIL2Rα/hPD1, no antibody ('-') [3]: 0.0545 nM
EC50, PD1 competition STAT5-Luc assay, YT/STAT5-Luc/hIL2Rα/hPD1, with Comp 1 [3]: 0.0765 nM
EC50, PD1 competition STAT5-Luc assay, YT/STAT5-Luc/hIL2Rα/hPD1, with Comp 2 [3]: 0.0805 nM
EC50, PD1 competition STAT5-Luc assay, YT/STAT5-Luc/hIL2Rα/hPD1, with REGN2810 [3]: 0.117 nM
EC50, PD1 competition STAT5-Luc assay, YT/STAT5-Luc/hIL2Rα/hPD1, with isotype control [3]: 0.0709 nM
Fold induction, AP1-Luc PD1 antagonistic assay [3]: 3.04 fold
EC50 (M), STAT5-Luc IL2 reporter assay, CD25 OE/PD1 OE [4]: 3.71e-11 M
Max Fold induction, STAT5-Luc IL2 reporter assay, CD25 OE/PD1 OE [4]: 5.1 fold
EC50 (M), STAT5-Luc IL2 reporter assay, CD25 KO/PD1 OE [5]: 8.38e-11 M
Max Fold induction, STAT5-Luc IL2 reporter assay, CD25 KO/PD1 OE [5]: 4.36 fold

Reference: patent US20220402989A1
